Source: patent publication US20250340661A1 (JIANGSU HENGRUI PHARMACEUTICALS, published 2025)
Read-outs that look alike come from different tables or passages of the source. Each block holds one binder with its values, some of them ahead of it.

How the values were obtained:
[1] = biological target: T1, human CD40 on the cell surface (human, UniProt P25942 21-277); experiment: flow cytometry on Raji cells, Alexa Fluor 488 anti-human IgG (H+L) detection
T1 construct: whole, on cells; also called Raji cell surface human CD40; human CD40 on HEK-Blue CD40L cells
T1 sequence (P25942 21-277): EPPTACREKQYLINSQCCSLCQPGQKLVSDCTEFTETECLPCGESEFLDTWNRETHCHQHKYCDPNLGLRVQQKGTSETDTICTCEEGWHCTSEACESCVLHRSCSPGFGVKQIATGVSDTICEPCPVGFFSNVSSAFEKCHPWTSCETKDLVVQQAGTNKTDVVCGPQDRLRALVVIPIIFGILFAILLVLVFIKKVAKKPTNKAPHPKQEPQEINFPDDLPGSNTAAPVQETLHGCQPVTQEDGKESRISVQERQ
Procedure: Raji cells were plated at 1.5E5/well, and various concentrations of CD40 antagonistic antibodies were added. The plate was incubated at 4° C. for 1 h. After two washes with FACS buffer (PBS+2% FBS), a secondary antibody (Alexa Flour488 conjugated anti-human IgG (H+L) antibody) was added, and the plate was incubated at 4° C. for 0.5 h.
After two washes with FACS buffer, the fluorescence intensity on the cell surface was measured by flow cytometry (BD FACS Celesta).

[2] = biological target: T1, human CD40 on the cell surface; experiment: cell-based or functional assay
[3] = biological target: T1, human CD40 on the cell surface; experiment: cell-based or functional assay; remark: listed apart in the source
[4] = biological target: T1, human CD40 on the cell surface; experiment: cell-based or functional assay; remark: listed apart in the source
[5] = biological target: T1, human CD40 on the cell surface; experiment: cell-based or functional assay; remark: listed apart in the source
[6] = biological target: T2, his-tagged human CD40 (h-CD40-his) recombinant protein (human, UniProt P25942 21-193); experiment: SPR (Biacore), antibody captured on anti-human Fc chip, His-tagged CD40 as analyte, 1:1 model
T2 construct: Bought from Acrobiosystems, Cat. #CD0-H5228; also called His-tagged human CD40 antigen; not shown: His tag
T2 sequence (P25942 21-193 limits assumed): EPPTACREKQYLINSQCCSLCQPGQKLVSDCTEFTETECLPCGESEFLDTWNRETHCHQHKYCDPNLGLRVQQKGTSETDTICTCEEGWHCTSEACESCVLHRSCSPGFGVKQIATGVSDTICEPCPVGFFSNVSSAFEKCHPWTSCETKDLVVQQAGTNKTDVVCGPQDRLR
Procedure: (§1) The test antibody was affinity-captured on an anti-human Fc chip, and a series of concentrations of His-tagged human or cynomolgus monkey CD40 antigen were allowed to flow over the chip surface. Reaction signals were detected in real time using a Biacore instrument, and thus binding and dissociation curves were obtained. The buffer used in the experiment was HBS-EP+10× buffer solution (Cat. #BR-1006-69, GE) diluted to 1× (pH 7.4) with D. I. Water. Fitting was performed on the data obtained from the experiment using a (1:1) Binding model to obtain affinity values. 9E6-L4H2 and 2F12-L4H2 have similar binding constants for human CD40 to CFZ533, 9E6-L4H2 has a stronger binding affinity for cynomolgus monkey CD40, and 2F12-L4H2 has a slightly weak binding affinity for cynomolgus monkey CD40.

[7] = biological target: T3, his-tagged cynomolgus monkey CD40 (cyno-CD40-his) recombinant protein (cynomolgus monkey); experiment: as above
T3 construct: Bought from Acrobiosystems, Cat. #CD0-C52H6
Procedure: as §1

[8] = biological target: T1, human CD40 on the cell surface; experiment: cell-based or functional assay; remark: listed apart in the source
human FcRn antigen = human FcRn antigen (human, UniProt P55899 24-297; P61769 21-119); experiment: SPR (Biacore), antibody captured on anti-human Fab chip, human FcRn as analyte, steady state model
Procedure: The test antibody was affinity-captured on an anti-human Fab chip, and a series of concentrations of human FcRn antigen (purchased from AcroBiosystem) were allowed to flow over the chip surface. Reaction signals where the reactions were in a steady state were detected in real time using a Biacore instrument. The buffer used in the experiment was HBS-EP+10× buffer solution (Cat. #BR-1006-69, GE) diluted to 1× (pH 7.4) with D. I. Water. Fitting was performed on the data obtained from the experiment using a steady state binding model to obtain affinity values. The anti-CD40 antibodies carrying the AAYTE mutation have a higher binding affinity for human FcRn than their parent antibodies.

[9] = biological target: T1, human CD40 on the cell surface; experiment: cell-based or functional assay; remark: listed apart in the source
[10] = biological target: T1, human CD40 on the cell surface; experiment: cell-based or functional assay; remark: listed apart in the source
[11] = biological target: T1, human CD40 on the cell surface; experiment: cell-based or functional assay; remark: listed apart in the source

B1: humanized anti-CD40 antibody 2F12-L4H2 (antibody, human IgG1, kappa, N297A)
heavy: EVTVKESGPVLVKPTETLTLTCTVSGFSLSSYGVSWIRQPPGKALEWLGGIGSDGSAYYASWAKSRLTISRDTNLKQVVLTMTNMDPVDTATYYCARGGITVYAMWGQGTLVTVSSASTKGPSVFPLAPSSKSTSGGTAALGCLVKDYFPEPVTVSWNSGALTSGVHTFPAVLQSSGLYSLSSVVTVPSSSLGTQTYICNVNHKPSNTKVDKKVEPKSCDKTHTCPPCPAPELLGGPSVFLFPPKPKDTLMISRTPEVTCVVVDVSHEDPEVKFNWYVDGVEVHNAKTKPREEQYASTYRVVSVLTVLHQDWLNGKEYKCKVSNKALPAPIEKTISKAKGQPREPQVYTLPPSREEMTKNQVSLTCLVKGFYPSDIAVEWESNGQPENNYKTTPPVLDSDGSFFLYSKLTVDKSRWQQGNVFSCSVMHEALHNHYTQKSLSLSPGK
light: AFQLTQSPSSLSASVGDRVTITCQASQSISTGLAWYQQKPGKPPKLLIVGASNLASGVPSRFSGSGSGTDFTLTISSLQPEDFATYYCQSYFSSSSTVFGGGTKVEIKRTVAAPSVFIFPPSDEQLKSGTASVVCLLNNFYPREAKVQWKVDNALQSGNSQESVTEQDSKDSTYSLSSTLTLSKADYEKHKVYACEVTHQGLSSPVTKSFNRGEC
notes: human IgG1 N297A (Eu) heavy chain, human kappa light chain; 2F12-L4 light chain and 2F12-H2 heavy chain
EC50 [1]: 0.589 nM
B cell activation assay, CD19+CD69+ % IC50 [2]: 0.04 nM
B cell activation assay, CD19+CD69+ MFI IC50 [2]: 0.03 nM
IC50 (read off the curve), CD40L-induced IL-12/23 p40 secretion by DC cells [3]: ~0.7 nM
IC50 in DC cell activation assay system, CD80 MFI [4]: 0.78 nM
IC50 in DC cell activation assay system, CD86 MFI [4]: 0.52 nM
IC50 in DC cell activation assay system, IL-12/23 p40 [4]: 0.68 nM
IC50 in DC cell activation assay system, TNFα [4]: 0.3 nM
IC50 for the inhibition of CD40 reporter gene cell activity (Assay 1) [5]: 0.18 nM
Kd [6]: 2.71 nM
koff [6]: 0.00206 s⁻¹
kon [6]: 758000 M⁻¹ s⁻¹
Kd [7]: 35.3 nM
koff [7]: 0.414 s⁻¹
kon [7]: 1.17e+07 M⁻¹ s⁻¹
IC50 (read off the curve), CD40L-induced TNFα secretion by DC cells [8]: ~0.4 nM
Kd (human FcRn antigen): 279 nM

B3: humanized anti-CD40 antibody 9E6-L4H2 (antibody, human IgG1, kappa, N297A)
heavy: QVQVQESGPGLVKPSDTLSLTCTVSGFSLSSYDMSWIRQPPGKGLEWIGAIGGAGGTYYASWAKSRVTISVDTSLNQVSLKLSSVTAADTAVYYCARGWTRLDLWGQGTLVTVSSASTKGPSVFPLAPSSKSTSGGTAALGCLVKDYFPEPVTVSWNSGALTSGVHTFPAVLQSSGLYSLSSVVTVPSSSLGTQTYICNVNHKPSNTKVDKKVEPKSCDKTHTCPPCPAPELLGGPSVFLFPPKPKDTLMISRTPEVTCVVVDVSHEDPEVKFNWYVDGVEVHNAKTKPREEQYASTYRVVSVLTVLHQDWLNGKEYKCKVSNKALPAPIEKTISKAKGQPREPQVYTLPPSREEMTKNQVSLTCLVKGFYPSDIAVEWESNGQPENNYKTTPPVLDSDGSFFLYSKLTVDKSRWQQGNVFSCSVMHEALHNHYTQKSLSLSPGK
light: DIQLTQSPSFLSASVGDRVTITCQASEDISSNLAWYQQKPGKPPKLLIFPASNLASGVPSRFSGSGSGTEFTLTISSLQPEDFATYYCQGGYWTSTSNFGQGFGGGTKVEIKRTVAAPSVFIFPPSDEQLKSGTASVVCLLNNFYPREAKVQWKVDNALQSGNSQESVTEQDSKDSTYSLSSTLTLSKADYEKHKVYACEVTHQGLSSPVTKSFNRGEC
notes: human IgG1 N297A (Eu) heavy chain, human kappa light chain; 9E6-L4 light chain and 9E6-H2 heavy chain
EC50 [1]: 0.87 nM
B cell activation assay, CD19+CD69+ % IC50 [2]: 0.14 nM
B cell activation assay, CD19+CD69+ MFI IC50 [2]: 0.07 nM
IC50 (read off the curve), CD40L-induced B cell activation (CD19+CD69+ MFI) [9]: ~0.2 nM
IC50 in DC cell activation assay system, CD80 MFI [4]: 3.44 nM
IC50 in DC cell activation assay system, CD86 MFI [4]: 3.72 nM
IC50 in DC cell activation assay system, IL-12/23 p40 [4]: 1.85 nM
IC50 in DC cell activation assay system, TNFα [4]: 0.7 nM
IC50 (read off the curve), CD40L-induced TNFα secretion by DC cells [10]: ~0.7 nM
IC50 for the inhibition of CD40 reporter gene cell activity (Assay 2) [5]: 0.5 nM
Kd [6]: 0.536 nM
koff [6]: 0.000221 s⁻¹
kon [6]: 413000 M⁻¹ s⁻¹
Kd [7]: 0.121 nM
koff [7]: 6.23e-05 s⁻¹
kon [7]: 514000 M⁻¹ s⁻¹
IC50 (read off the curve), CD40L-induced IL-12/23 p40 secretion by DC cells [11]: 1 to 2 nM
Kd (human FcRn antigen): 293 nM

Now from value to binder:

IC50 (read off the curve), CD40L-induced IL-12/23 p40 secretion by DC cells [3]: ~0.6 nM
IC50 (read off the curve), CD40L-induced TNFα secretion by DC cells [8]: ~0.3 nM
Kd (human FcRn antigen): 44.2 nM
B2: humanized anti-CD40 antibody 2F12-L4H2-AAYTE (antibody, human IgG1, kappa, L234A L235A)
heavy: EVTVKESGPVLVKPTETLTLTCTVSGFSLSSYGVSWIRQPPGKALEWLGGIGSDGSAYYASWAKSRLTISRDTNLKQVVLTMTNMDPVDTATYYCARGGITVYAMWGQGTLVTVSSASTKGPSVFPLAPSSKSTSGGTAALGCLVKDYFPEPVTVSWNSGALTSGVHTFPAVLQSSGLYSLSSVVTVPSSSLGTQTYICNVNHKPSNTKVDKKVEPKSCDKTHTCPPCPAPEAAGGPSVFLFPPKPKDTLYITREPEVTCVVVDVSHEDPEVKFNWYVDGVEVHNAKTKPREEQYNSTYRVVSVLTVLHQDWLNGKEYKCKVSNKALPAPIEKTISKAKGQPREPQVYTLPPSREEMTKNQVSLTCLVKGFYPSDIAVEWESNGQPENNYKTTPPVLDSDGSFFLYSKLTVDKSRWQQGNVFSCSVMHEALHNHYTQKSLSLSPGK
light: B1 light
notes: light chain unchanged from 2F12-L4H2

IC50 (read off the curve), CD40L-induced B cell activation (CD19+CD69+ MFI) [9]: ~0.2 nM
IC50 (read off the curve), CD40L-induced TNFα secretion by DC cells [10]: ~0.5 nM
IC50 (read off the curve), CD40L-induced IL-12/23 p40 secretion by DC cells [11]: ~1 nM
Kd (human FcRn antigen): 39.8 nM
B4: humanized anti-CD40 antibody 9E6-L4H2-AAYTE (antibody, human IgG1, kappa, L234A L235A)
heavy: QVQVQESGPGLVKPSDTLSLTCTVSGFSLSSYDMSWIRQPPGKGLEWIGAIGGAGGTYYASWAKSRVTISVDTSLNQVSLKLSSVTAADTAVYYCARGWTRLDLWGQGTLVTVSSASTKGPSVFPLAPSSKSTSGGTAALGCLVKDYFPEPVTVSWNSGALTSGVHTFPAVLQSSGLYSLSSVVTVPSSSLGTQTYICNVNHKPSNTKVDKKVEPKSCDKTHTCPPCPAPEAAGGPSVFLFPPKPKDTLYITREPEVTCVVVDVSHEDPEVKFNWYVDGVEVHNAKTKPREEQYNSTYRVVSVLTVLHQDWLNGKEYKCKVSNKALPAPIEKTISKAKGQPREPQVYTLPPSREEMTKNQVSLTCLVKGFYPSDIAVEWESNGQPENNYKTTPPVLDSDGSFFLYSKLTVDKSRWQQGNVFSCSVMHEALHNHYTQKSLSLSPGK
light: B3 light
notes: light chain unchanged from 9E6-L4H2
